{
  "source": "paper doi:10.1101/2022.02.11.480038",
  "about": "“Phosphorylation by casein kinase 2 ensures ER-phagy receptor TEX264 binding to ATG8 proteins” (bioRxiv, 2022)",
  "key": {"[1]": {"target": "T1, Human GABARAP (residues 1-116) (human, UniProt O95166 1-116)", "T1 construct": "GABARAP, human, residues 1-116; source: prepared as described previously (Mochida et al., 2020), purified", "T1 sequence (O95166 1-116)": "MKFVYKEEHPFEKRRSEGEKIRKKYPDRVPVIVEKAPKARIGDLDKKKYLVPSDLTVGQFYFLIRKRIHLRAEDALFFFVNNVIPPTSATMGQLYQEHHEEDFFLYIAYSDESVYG", "assay": "ITC; Microcal iTC200, 25°C; TEX264 peptides 0.5 mM in the syringe, LC3B or GABARAP in the cell at 10-times lower concentration; single-site binding model", "conditions": "both partners purified"}, "[2]": {"target": "Human LC3B (residues 1-120) (human, UniProt Q9GZQ8 1-120)", "assay": "ITC; Microcal iTC200, 25°C; TEX264 peptides 0.5 mM in the syringe, LC3B or GABARAP in the cell at 10-times lower concentration; single-site binding model", "conditions": "both partners purified"}},
  "note": "Where no end group is shown, it is not given here. [ ]: non-standard residue; d: D form. pS = N[C@@H](COP(=O)(O)O)C(=O)O",
  "data": [
    {"binder": "SGDDFEELDL (peptide, UniProt Q9Y6I9 269-278, looked up, also called 2D-LIR; source: synthetic peptide, bought: GenScript; passed over Superdex peptide)", "note": "[phosphomimetic TEX264^(S271D, S272D) peptide (2SD-LIR)]", "values": [
      {"measurement": "fold enhancement of affinity over the unmodified peptide", "setting": "[1]", "value": "~20", "unit": "fold"},
      {"measurement": "binding result", "setting": "[2]", "value": "binds"}
    ]},
    {"binder": "DGDDFEELDL (peptide, UniProt Q9Y6I9 269-278, looked up, also called 3D-LIR; source: synthetic peptide, bought: GenScript; passed over Superdex peptide)", "note": "[phosphomimetic TEX264^(S269D, S271D, S272D) peptide (3SD-LIR)]", "values": [
      {"measurement": "fold enhancement of affinity over the unmodified peptide", "setting": "[1]", "value": "~20", "unit": "fold"},
      {"measurement": "binding result", "setting": "[2]", "value": "binds"}
    ]},
    {"binder": "SGS[pS]FEELDL (also called p-Ser272; source: synthetic peptide, bought: GenScript; passed over Superdex peptide)", "note": "[TEX264 peptide (residues 269-278) with S272 phosphorylation (p-S272)]", "values": [
      {"measurement": "fold enhancement of affinity over the unphosphorylated peptide", "setting": "[1]", "value": 23, "unit": "fold"},
      {"measurement": "fold enhancement of affinity over the unphosphorylated peptide", "setting": "[2]", "value": 37, "unit": "fold"}
    ]},
    {"binder": "SGEEFEELDL (peptide, UniProt Q9Y6I9 269-278, looked up, also called 2E-LIR; source: synthetic peptide, bought: GenScript; passed over Superdex peptide)", "note": "[phosphomimetic TEX264^(S271, 272E) peptide (2SE-LIR)]", "values": [
      {"measurement": "fold enhancement of affinity over the unmodified peptide", "setting": "[1]", "value": "~20", "unit": "fold"},
      {"measurement": "binding result", "setting": "[2]", "value": "binds"}
    ]},
    {"binder": "EGEEFEELDL (peptide, UniProt Q9Y6I9 269-278, looked up, also called 3E-LIR; source: synthetic peptide, bought: GenScript; passed over Superdex peptide)", "note": "[phosphomimetic TEX264^(S269E, S271E, S272E) peptide (3SE-LIR)]", "values": [
      {"measurement": "fold enhancement of affinity over the unmodified peptide", "setting": "[1]", "value": "~20", "unit": "fold"},
      {"measurement": "binding result", "setting": "[2]", "value": "binds"}
    ]},
    {"binder": "[pS]GASGSSFEELDL (source: synthetic peptide, bought: GenScript; passed over Superdex peptide)", "note": "[TEX264 LIR peptide (residues 266-278) with S266 phosphorylation (p-S266)]", "values": [
      {"measurement": "fold enhancement of affinity over the unphosphorylated peptide", "setting": "[1]", "value": 6.5, "unit": "fold"},
      {"measurement": "fold enhancement of affinity over the unphosphorylated peptide", "setting": "[2]", "value": 1.8, "unit": "fold"}
    ]}
  ]
}
